Square brackets hold non-standard residues; d marks the D form. Ends that are not written are not given here. Hyp = O=C(O)[C@@H]1C[C@@H](O)CN1
Legend:
[1] = target: growth hormone receptor (GHR) on GHR-expressing NIH 3T3-L1 cells (Mus musculus (Mouse)) (UniProt P16882); test: radioreceptor competition assay; displacement of [125I]-hGH from monolayers of GHR-expressing NIH 3T3-L1 cells
[2] = target: anti-hGH-(SO)10 antibodies (1:10,000 serum dilution); test: competition ELISA; hGH-(SO)10-coated plates, anti-hGH-(SO)10 serum 1:10,000, 100 ug/ml (SO)10 as competitive inhibitor

UniProt P16882, sequence (P16882 25-650 limits assumed, form in doubt): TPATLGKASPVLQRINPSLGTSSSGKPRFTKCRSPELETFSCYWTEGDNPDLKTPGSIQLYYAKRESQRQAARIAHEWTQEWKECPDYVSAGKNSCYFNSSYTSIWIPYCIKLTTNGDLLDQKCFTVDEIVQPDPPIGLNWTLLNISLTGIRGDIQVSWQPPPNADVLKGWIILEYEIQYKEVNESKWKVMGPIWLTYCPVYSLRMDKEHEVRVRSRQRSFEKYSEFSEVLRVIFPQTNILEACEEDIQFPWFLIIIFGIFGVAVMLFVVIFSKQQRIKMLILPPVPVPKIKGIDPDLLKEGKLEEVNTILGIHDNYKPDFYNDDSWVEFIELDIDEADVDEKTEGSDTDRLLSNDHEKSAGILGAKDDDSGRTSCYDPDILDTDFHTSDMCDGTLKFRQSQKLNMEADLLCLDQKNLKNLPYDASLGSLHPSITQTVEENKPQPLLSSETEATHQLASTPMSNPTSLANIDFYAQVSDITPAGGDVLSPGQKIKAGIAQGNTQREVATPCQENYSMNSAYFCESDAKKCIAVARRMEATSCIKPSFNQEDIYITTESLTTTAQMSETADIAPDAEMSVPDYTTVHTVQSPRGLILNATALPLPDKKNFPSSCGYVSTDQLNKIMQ

Molecule	EC50 [1]	percent inhibition [2]
hGH-(SP)10-EGFP fusion glycoprotein (ligand)	10 nM	–
S[Hyp]S[Hyp]S[Hyp]S[Hyp]S[Hyp]S[Hyp]S[Hyp]S[Hyp]S[Hyp]S[Hyp] (not fully specified) [purified (SP)10 / (SO)10 glycomodule]	–	5%

— US20100028993A1
